Measurements: patent publication US20260347496 (published 2026)
“And” between values parts separate entries of the source, which are not always exact repeats. Equal values may be shown once.

B1: huG14-137 (antibody, V domains shown)
VH: EVQLVESGGGLVKPGGSLRLSCAASGLTFSNYWGNWVRQAPGKGLEWVALIRLYSDNYAIHYAESVKGRFTISRDDSKSTVYLQMNSLKTEDTAVYYCTTGTDNWGQGTTVTVSS
VL: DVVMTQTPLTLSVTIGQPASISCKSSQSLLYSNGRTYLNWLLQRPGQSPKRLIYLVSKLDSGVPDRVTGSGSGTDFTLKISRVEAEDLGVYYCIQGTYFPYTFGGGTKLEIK
B2: huG14-123 (antibody, V domains shown)
VH: EVQLVESGGGLVKPGGSLRLSCAASGLTFSNYWGNWVRQAPGKGLEWVALIRLYSDNYAIHYAESVKGRFTISRDDSKSTVYLQMNSLKTEDTAVYYCTTGTDYWGQGTTVTVSS
VL: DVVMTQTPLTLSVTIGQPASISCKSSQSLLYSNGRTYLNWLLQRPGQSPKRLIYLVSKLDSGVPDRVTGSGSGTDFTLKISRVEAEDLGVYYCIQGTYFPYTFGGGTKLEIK
B3: huG14-138 (antibody, V domains shown)
VH: EVQLVESGGGLVKPGGSLRLSCAASGLTFSNYWGNWVRQAPGKGLEWVALIRLYSDNYAIHYAESVKGRFTISRDDSKSTVYLQMNSLKTEDTAVYYCTTGTDNWGQGTTVTVSS
VL: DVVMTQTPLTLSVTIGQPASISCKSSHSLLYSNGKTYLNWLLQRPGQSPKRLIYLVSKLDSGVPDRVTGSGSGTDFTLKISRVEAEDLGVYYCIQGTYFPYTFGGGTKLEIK
B4: huG14-133 (antibody, V domains shown)
VH: EVQLVESGGGLVKPGGSLRLSCAASGLTFSNYWGNWVRQAPGKGLEWVALIRLYSDNYAIHYAESVKGRFTISRDDSKSTVYLQMNSLKTEDTAVYYCTTGTDNWGQGTTVTVSS
VL: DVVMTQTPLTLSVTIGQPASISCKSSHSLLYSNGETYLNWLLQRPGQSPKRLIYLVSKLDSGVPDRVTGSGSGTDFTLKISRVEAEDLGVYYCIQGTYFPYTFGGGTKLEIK
B5: huG14-127 (antibody, V domains shown)
VH: EVQLVESGGGLVKPGGSLRLSCAASGLTFSNYWMNWVRQAPGKGLEWVALIRLYSDNYAIHYAESVKGRFTISRDDSKSTVYLQMNSLKTEDTAVYYCTTGTDNWGQGTTVTVSS
VL: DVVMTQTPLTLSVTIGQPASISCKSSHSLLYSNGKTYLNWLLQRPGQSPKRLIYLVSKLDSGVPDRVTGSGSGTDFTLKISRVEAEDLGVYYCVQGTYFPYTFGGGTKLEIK
B6: huG14-114 (antibody, V domains shown)
VH: EVQLVESGGGLVKPGGSLRLSCAASGLTFSNYWMNWVRQAPGKGLEWVALIRLYSDNYAIHYAESVKGRFTISRDDSKSTVYLQMNSLKTEDTAVYYCTTGTDYWGQGTTVTVSS
VL: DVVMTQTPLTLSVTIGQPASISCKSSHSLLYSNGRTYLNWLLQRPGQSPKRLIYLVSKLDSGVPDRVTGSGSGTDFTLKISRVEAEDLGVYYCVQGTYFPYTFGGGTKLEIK
B7: huG14-130 (antibody, V domains shown)
VH: EVQLVESGGGLVKPGGSLRLSCAASGLTFSNYWMNWVRQAPGKGLEWVALIRLYSDNYAIHYAESVKGRFTISRDDSKSTVYLQMNSLKTEDTAVYYCTTGTDNWGQGTTVTVSS
VL: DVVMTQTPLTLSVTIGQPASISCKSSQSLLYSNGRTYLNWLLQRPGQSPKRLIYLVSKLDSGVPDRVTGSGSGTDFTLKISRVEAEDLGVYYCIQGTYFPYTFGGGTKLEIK
B8: huG14-135 (antibody, V domains shown)
VH: EVQLVESGGGLVKPGGSLRLSCAASGLTFSNYWGNWVRQAPGKGLEWVALIRLYSDNYAIHYAESVKGRFTISRDDSKSTVYLQMNSLKTEDTAVYYCTTGTDNWGQGTTVTVSS
VL: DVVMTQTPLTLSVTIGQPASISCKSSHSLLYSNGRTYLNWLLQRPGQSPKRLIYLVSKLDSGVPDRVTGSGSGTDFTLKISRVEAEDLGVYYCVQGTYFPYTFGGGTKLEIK
B9: huG14-116 (antibody, V domains shown)
VH: EVQLVESGGGLVKPGGSLRLSCAASGLTFSNYWMNWVRQAPGKGLEWVALIRLYSDNYAIHYAESVKGRFTISRDDSKSTVYLQMNSLKTEDTAVYYCTTGTDYWGQGTTVTVSS
VL: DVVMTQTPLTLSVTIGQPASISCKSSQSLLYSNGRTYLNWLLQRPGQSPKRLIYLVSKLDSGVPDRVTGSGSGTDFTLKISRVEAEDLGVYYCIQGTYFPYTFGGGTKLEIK
B10: huG14-118 (antibody, V domains shown)
VH: EVQLVESGGGLVKPGGSLRLSCAASGLTFSNYWMNWVRQAPGKGLEWVALIRLYSDNYAIHYAESVKGRFTISRDDSKSTVYLQMNSLKTEDTAVYYCTTGTDYWGQGTTVTVSS
VL: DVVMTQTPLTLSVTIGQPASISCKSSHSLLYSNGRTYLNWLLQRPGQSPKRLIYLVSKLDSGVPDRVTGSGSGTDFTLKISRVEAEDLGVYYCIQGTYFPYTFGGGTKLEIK
B11: huG14-129 (antibody, V domains shown)
VH: EVQLVESGGGLVKPGGSLRLSCAASGLTFSNYWMNWVRQAPGKGLEWVALIRLYSDNYAIHYAESVKGRFTISRDDSKSTVYLQMNSLKTEDTAVYYCTTGTDNWGQGTTVTVSS
VL: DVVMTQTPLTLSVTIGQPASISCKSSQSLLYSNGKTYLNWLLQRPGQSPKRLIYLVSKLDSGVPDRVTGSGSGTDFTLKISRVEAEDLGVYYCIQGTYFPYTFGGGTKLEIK
B12: huG14-121 (antibody, V domains shown)
VH: EVQLVESGGGLVKPGGSLRLSCAASGLTFSNYWGNWVRQAPGKGLEWVALIRLYSDNYAIHYAESVKGRFTISRDDSKSTVYLQMNSLKTEDTAVYYCTTGTDYWGQGTTVTVSS
VL: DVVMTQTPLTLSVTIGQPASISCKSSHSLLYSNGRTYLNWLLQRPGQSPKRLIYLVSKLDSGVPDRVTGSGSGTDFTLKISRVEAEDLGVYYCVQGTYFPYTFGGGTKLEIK
B13: huG14-115 (antibody, V domains shown)
VH: EVQLVESGGGLVKPGGSLRLSCAASGLTFSNYWMNWVRQAPGKGLEWVALIRLYSDNYAIHYAESVKGRFTISRDDSKSTVYLQMNSLKTEDTAVYYCTTGTDYWGQGTTVTVSS
VL: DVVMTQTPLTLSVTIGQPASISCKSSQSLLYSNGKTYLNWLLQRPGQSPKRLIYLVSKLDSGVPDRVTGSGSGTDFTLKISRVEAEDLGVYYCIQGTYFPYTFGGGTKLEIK
B14: huG14-119 (antibody, V domains shown)
VH: EVQLVESGGGLVKPGGSLRLSCAASGLTFSNYWGNWVRQAPGKGLEWVALIRLYSDNYAIHYAESVKGRFTISRDDSKSTVYLQMNSLKTEDTAVYYCTTGTDYWGQGTTVTVSS
VL: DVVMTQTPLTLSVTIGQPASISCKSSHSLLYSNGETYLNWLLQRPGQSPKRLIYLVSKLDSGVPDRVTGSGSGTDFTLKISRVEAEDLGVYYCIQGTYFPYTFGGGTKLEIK
B15: huG14-120 (antibody, V domains shown)
VH: EVQLVESGGGLVKPGGSLRLSCAASGLTFSNYWGNWVRQAPGKGLEWVALIRLYSDNYAIHYAESVKGRFTISRDDSKSTVYLQMNSLKTEDTAVYYCTTGTDYWGQGTTVTVSS
VL: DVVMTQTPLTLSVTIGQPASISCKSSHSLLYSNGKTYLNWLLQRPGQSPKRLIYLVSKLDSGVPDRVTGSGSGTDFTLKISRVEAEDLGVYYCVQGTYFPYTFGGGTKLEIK
B16: huG14-128 (antibody, V domains shown)
VH: EVQLVESGGGLVKPGGSLRLSCAASGLTFSNYWMNWVRQAPGKGLEWVALIRLYSDNYAIHYAESVKGRFTISRDDSKSTVYLQMNSLKTEDTAVYYCTTGTDNWGQGTTVTVSS
VL: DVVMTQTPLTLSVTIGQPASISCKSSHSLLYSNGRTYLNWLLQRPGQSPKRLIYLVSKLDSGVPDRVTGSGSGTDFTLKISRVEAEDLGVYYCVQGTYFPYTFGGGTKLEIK
B17: huG14-112 (antibody, V domains shown)
VH: EVQLVESGGGLVKPGGSLRLSCAASGLTFSNYWMNWVRQAPGKGLEWVALIRLYSDNYAIHYAESVKGRFTISRDDSKSTVYLQMNSLKTEDTAVYYCTTGTDYWGQGTTVTVSS
VL: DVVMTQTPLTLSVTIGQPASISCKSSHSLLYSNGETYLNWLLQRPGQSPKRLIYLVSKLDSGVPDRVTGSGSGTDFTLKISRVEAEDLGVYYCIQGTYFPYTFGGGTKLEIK
B18: huG14-139 (antibody, V domains shown)
VH: EVQLVESGGGLVKPGGSLRLSCAASGLTFSNYWGNWVRQAPGKGLEWVALIRLYSDNYAIHYAESVKGRFTISRDDSKSTVYLQMNSLKTEDTAVYYCTTGTDNWGQGTTVTVSS
VL: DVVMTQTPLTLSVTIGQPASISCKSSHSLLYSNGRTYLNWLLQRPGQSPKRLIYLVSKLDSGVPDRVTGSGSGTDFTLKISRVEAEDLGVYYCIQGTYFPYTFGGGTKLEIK
B19: huG14-134 (antibody, V domains shown)
VH: EVQLVESGGGLVKPGGSLRLSCAASGLTFSNYWGNWVRQAPGKGLEWVALIRLYSDNYAIHYAESVKGRFTISRDDSKSTVYLQMNSLKTEDTAVYYCTTGTDNWGQGTTVTVSS
VL: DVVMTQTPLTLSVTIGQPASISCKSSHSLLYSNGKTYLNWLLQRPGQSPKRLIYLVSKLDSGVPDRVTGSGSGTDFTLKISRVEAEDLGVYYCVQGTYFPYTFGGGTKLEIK
B20: huG14-132 (antibody, V domains shown)
VH: EVQLVESGGGLVKPGGSLRLSCAASGLTFSNYWMNWVRQAPGKGLEWVALIRLYSDNYAIHYAESVKGRFTISRDDSKSTVYLQMNSLKTEDTAVYYCTTGTDNWGQGTTVTVSS
VL: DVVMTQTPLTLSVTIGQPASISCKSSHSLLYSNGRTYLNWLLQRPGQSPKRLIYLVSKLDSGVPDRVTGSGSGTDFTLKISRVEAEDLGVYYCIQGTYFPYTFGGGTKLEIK
B21: huG14-122 (antibody, V domains shown)
VH: EVQLVESGGGLVKPGGSLRLSCAASGLTFSNYWGNWVRQAPGKGLEWVALIRLYSDNYAIHYAESVKGRFTISRDDSKSTVYLQMNSLKTEDTAVYYCTTGTDYWGQGTTVTVSS
VL: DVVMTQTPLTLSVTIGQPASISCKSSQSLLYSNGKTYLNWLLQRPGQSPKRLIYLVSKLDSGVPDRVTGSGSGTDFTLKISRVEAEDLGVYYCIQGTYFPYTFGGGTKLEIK
B22: huG14-126 (antibody, V domains shown)
VH: EVQLVESGGGLVKPGGSLRLSCAASGLTFSNYWMNWVRQAPGKGLEWVALIRLYSDNYAIHYAESVKGRFTISRDDSKSTVYLQMNSLKTEDTAVYYCTTGTDNWGQGTTVTVSS
VL: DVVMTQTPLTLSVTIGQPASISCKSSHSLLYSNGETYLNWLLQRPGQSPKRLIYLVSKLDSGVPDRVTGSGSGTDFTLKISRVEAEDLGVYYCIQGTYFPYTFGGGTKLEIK
B23: huG14-136 (antibody, V domains shown)
VH: EVQLVESGGGLVKPGGSLRLSCAASGLTFSNYWGNWVRQAPGKGLEWVALIRLYSDNYAIHYAESVKGRFTISRDDSKSTVYLQMNSLKTEDTAVYYCTTGTDNWGQGTTVTVSS
VL: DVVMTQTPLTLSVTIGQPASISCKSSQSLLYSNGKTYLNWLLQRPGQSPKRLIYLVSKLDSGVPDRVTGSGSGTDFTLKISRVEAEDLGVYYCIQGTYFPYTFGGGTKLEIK
B24: huG14-113 (antibody, V domains shown)
VH: EVQLVESGGGLVKPGGSLRLSCAASGLTFSNYWMNWVRQAPGKGLEWVALIRLYSDNYAIHYAESVKGRFTISRDDSKSTVYLQMNSLKTEDTAVYYCTTGTDYWGQGTTVTVSS
VL: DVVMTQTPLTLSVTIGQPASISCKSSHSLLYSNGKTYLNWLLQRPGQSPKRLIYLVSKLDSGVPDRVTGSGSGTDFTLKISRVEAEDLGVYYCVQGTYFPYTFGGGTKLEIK
B25: huG14-117 (antibody, V domains shown)
VH: EVQLVESGGGLVKPGGSLRLSCAASGLTFSNYWMNWVRQAPGKGLEWVALIRLYSDNYAIHYAESVKGRFTISRDDSKSTVYLQMNSLKTEDTAVYYCTTGTDYWGQGTTVTVSS
VL: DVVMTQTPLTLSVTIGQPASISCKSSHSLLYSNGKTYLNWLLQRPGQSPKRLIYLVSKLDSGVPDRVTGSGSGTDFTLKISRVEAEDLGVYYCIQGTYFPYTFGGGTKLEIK
B26: huG14-213 (antibody, V domains shown)
VH: EVQLVESGGGLVKPGGSLRLSCAASGLTFSNYWGNWVRQAPGKGLEWVALIRLYSDNYAIHYAESVKGRFTISRDDSKSTVYLQMNSLKTEDTAVYYCTTGTDYWGQGTTVTVSS
VL: DVVMTQSPLSLPVTPGRPASISCKSSHSLLYSNGRTYLNWLLQKPGQSPQRLIYLVSKLDSGVPDRFSGSGSGTDFTLKISRVEAEDLGVYYCVQGTYFPYTFGQGTKLEIK
B27: huG14-229 (antibody, V domains shown)
VH: EVQLVESGGGLVKPGGSLRLSCAASGLTFSNYWGNWVRQAPGKGLEWVALIRLYSDNYAIHYAESVKGRFTISRDDSKSTVYLQMNSLKTEDTAVYYCTTGTDNWGQGTTVTVSS
VL: DVVMTQSPLSLPVTPGRPASISCKSSQSLLYSNGRTYLNWLLQKPGQSPQRLIYLVSKLDSGVPDRFSGSGSGTDFTLKISRVEAEDLGVYYCIQGTYFPYTFGQGTKLEIK
B28: huG14-209 (antibody, V domains shown)
VH: EVQLVESGGGLVKPGGSLRLSCAASGLTFSNYWMNWVRQAPGKGLEWVALIRLYSDNYAIHYAESVKGRFTISRDDSKSTVYLQMNSLKTEDTAVYYCTTGTDYWGQGTTVTVSS
VL: DVVMTQSPLSLPVTPGRPASISCKSSHSLLYSNGKTYLNWLLQKPGQSPQRLIYLVSKLDSGVPDRFSGSGSGTDFTLKISRVEAEDLGVYYCIQGTYFPYTFGQGTKLEIK
B29: huG14-205 (antibody, V domains shown)
VH: EVQLVESGGGLVKPGGSLRLSCAASGLTFSNYWMNWVRQAPGKGLEWVALIRLYSDNYAIHYAESVKGRFTISRDDSKSTVYLQMNSLKTEDTAVYYCTTGTDYWGQGTTVTVSS
VL: DVVMTQSPLSLPVTPGRPASISCKSSHSLLYSNGKTYLNWLLQKPGQSPQRLIYLVSKLDSGVPDRFSGSGSGTDFTLKISRVEAEDLGVYYCVQGTYFPYTFGQGTKLEIK
B30: huG14-101 (antibody, V domains shown)
VH: EVQLVESGGGLVKPGGSLRLSCAASGLTFSNYWMNWVRQAPGKGLEWVALIRLYSDNYAIHYAESVKGRFTISRDDSKSTVYLQMNSLKTEDTAVYYCTTGTDYWGQGTTVTVSS
VL: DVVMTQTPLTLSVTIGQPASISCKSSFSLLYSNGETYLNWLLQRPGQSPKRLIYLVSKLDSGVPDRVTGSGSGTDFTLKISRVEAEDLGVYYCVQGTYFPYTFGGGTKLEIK
B31: huG14-105 (antibody, V domains shown)
VH: EVQLVESGGGLVKPGGSLRLSCAASGLTFSNYWMNWVRQAPGKGLEWVALIRLYSDNYAIHYAESVKGRFTISRDDSKSTVYLQMNSLKTEDTAVYYCTTGTDYWGQGTTVTVSS
VL: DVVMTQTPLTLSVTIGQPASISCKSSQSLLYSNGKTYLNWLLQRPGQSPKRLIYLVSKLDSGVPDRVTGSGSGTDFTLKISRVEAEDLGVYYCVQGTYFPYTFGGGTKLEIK
B32: huG14-109 (antibody, V domains shown)
VH: EVQLVESGGGLVKPGGSLRLSCAASGLTFSNYWGNWVRQAPGKGLEWVALIRLYSDNYAIHYAESVKGRFTISRDDSKSTVYLQMNSLKTEDTAVYYCTTGTDYWGQGTTVTVSS
VL: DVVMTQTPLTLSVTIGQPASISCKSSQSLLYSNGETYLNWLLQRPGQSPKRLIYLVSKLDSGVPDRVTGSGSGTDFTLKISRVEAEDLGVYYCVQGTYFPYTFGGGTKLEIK

target: CD24(27-56aa)-GST NEOX-4 (human); assay: ELISA
Sequence (chain, as listed by the source): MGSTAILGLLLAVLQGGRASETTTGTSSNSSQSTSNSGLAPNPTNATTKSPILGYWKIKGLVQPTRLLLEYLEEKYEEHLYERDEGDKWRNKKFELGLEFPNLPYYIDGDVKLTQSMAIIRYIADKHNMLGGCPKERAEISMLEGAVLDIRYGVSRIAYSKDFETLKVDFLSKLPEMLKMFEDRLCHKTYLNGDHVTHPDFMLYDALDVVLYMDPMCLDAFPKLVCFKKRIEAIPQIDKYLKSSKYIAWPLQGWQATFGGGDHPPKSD

B1 and B2 are within 1.5-fold of each other in EC50: 3.87 ng/mL for the first, 3.86 ng/mL for the second.

First: B3
Second: B4
The EC50 of the first is 1.7-fold lower: 3.28 ng/mL for the first, 5.66 ng/mL for the second.

Compared with B5, B6 is 3.5-fold higher in EC50: 2.97 ng/mL for the first, 10.4 ng/mL for the second.

B7 and B8 are within 1.5-fold of each other in EC50: 3.89 ng/mL for the first, 3.87 ng/mL for the second.

Compared with B9, B10 is 2.3-fold lower in EC50: 11.2 ng/mL for the first, 4.83 ng/mL for the second.

Going from B11 to B13, the EC50 rises from 4.09 ng/mL to 12.9 ng/mL (3.2-fold).

B14 and B15 are within 1.5-fold of each other in EC50: 8.93 ng/mL for the first, 6.23 ng/mL for the second.

Compared with B16, B17 is 2.9-fold higher in EC50: 4.12 ng/mL for the first, 12.1 ng/mL for the second.

B18 and B19 are within 1.5-fold of each other in EC50: 3.17 ng/mL for the first, 3.83 ng/mL for the second.

Compared with B20, B21 is 1.5-fold higher in EC50: 4.72 ng/mL for the first, 7.12 ng/mL for the second.

B22 and B23 are within 1.5-fold of each other in EC50: 3.93 ng/mL for the first, 4.05 ng/mL for the second.

First: B24
Second: B25
The EC50 of the first is 1.6-fold higher: 11.9 ng/mL for the first, 7.27 ng/mL for the second.

B12 was tested, and the EC50 was 7.37 ng/mL and 7.04 ng/mL.

target: CD24(27-56aa)-GST NEOX-4 (human); assay: ELISA; remark: another data set of the same source

Going from B26 to B27, the EC50 rises from 3.29 ng/mL to 9.1 ng/mL (2.8-fold).

First: B28
Second: B29
The EC50 of the first is 1.5-fold lower: 4.13 ng/mL for the first, 6.28 ng/mL for the second.

target: CD24(27-56aa)-GST NEOX-4 (human); assay: ELISA; remark: another data set of the same source

Compared with B30, B31 is 1.6-fold lower in EC50: 32.5 ng/mL for the first, 20.6 ng/mL for the second.

Work on B32 yielded an EC50 of 10.9 ng/mL.
